Like-named read-outs stand apart in the source and are kept apart here.
What was measured:
commercial RBD protein = commercial RBD protein (SARS-CoV-2, UniProt P0DTC2 319-541)
pxENB1-His-TEV-FLS-TN [1] = target: T1, pxENB1-His-TEV-FLS-TN (SARS-CoV-2, UniProt P0DTC2 14-1213)
pxENB2-His-TEV-FLS-CT [2] = target: T2, pxENB2-His-TEV-FLS-CT (SARS-CoV-2, UniProt P0DTC2 14-1213)
pxENB5-his-TEV-FLS [3] = target: T3, pxENB5-his-TEV-FLS (SARS-CoV-2, UniProt P0DTC2 14-1213)
pxENB8-FLS-TN-His [4] = target: T4, pxENB8-FLS-TN-His (SARS-CoV-2, UniProt P0DTC2 15-1213)
pxENB9-FLS-CT-His [5] = target: T5, pxENB9-FLS-CT-His (SARS-CoV-2, UniProt P0DTC2 15-1213)
pxENB12-FLS-His [6] = target: T6, pxENB12-FLS-His (SARS-CoV-2, UniProt P0DTC2 15-1213)
pxAM-FLS-A-TB-His = pxAM-FLS-A-TB-His (SARS-CoV-2, UniProt P0DTC2 15-1213)
pxENB1-His-TEV-FLS-TN [7] = target: T1, pxENB1-His-TEV-FLS-TN; remark: listed apart in the source
pxENB2-His-TEV-FLS-CT [8] = target: T2, pxENB2-His-TEV-FLS-CT; remark: listed apart in the source
pxENB5-his-TEV-FLS [9] = target: T3, pxENB5-his-TEV-FLS; remark: listed apart in the source
pxENB8-FLS-TN-His [10] = target: T4, pxENB8-FLS-TN-His; remark: listed apart in the source
pxENB9-FLS-CT-His [11] = target: T5, pxENB9-FLS-CT-His; remark: listed apart in the source
pxENB12-FLS-His [12] = target: T6, pxENB12-FLS-His; remark: listed apart in the source
pxEBNCP14-tPa-FLS-CT-His = pxEBNCP14-tPa-FLS-CT-His (SARS-CoV-2, UniProt P0DTC2 16-1213)
[13] = target: pxEBNCP15-mIgGHC-FLS-CT-His (SARS-CoV-2, UniProt P0DTC2 16-1213)
pxEBNCP16-IL2-FLS-CT-His = pxEBNCP16-IL2-FLS-CT-His (SARS-CoV-2, UniProt P0DTC2 16-1213)
[14] = target: pxENBEP17_TPA_Nuc(1-182)_Spike (15-1216, GAAS, PP)_10xHis (SARS-CoV-2)
[15] = target: pxENBEP18_Spike_Nuc(1-182)_10xHis (SARS-CoV-2)
pxEBNCP1-His-TEV-S1 = pxEBNCP1-His-TEV-S1 (SARS-CoV-2, UniProt P0DTC2 14-680)
pxEBNCP2-tPa-His-TEV-S1 = pxEBNCP2-tPa-His-TEV-S1 (SARS-CoV-2, UniProt P0DTC2 14-680)
pxEBNCP3-S1-His = pxEBNCP3-S1-His (SARS-CoV-2, UniProt P0DTC2 15-681)
pxEBNCP4-tPa-S1-His = pxEBNCP4-tPa-S1-His (SARS-CoV-2, UniProt P0DTC2 15-681)
pxENB14-His-TEV-RBD = pxENB14-His-TEV-RBD (SARS-CoV-2, UniProt P0DTC2 319-541)
pxENB17-RBD-His [16] = target: T7, pxENB17-RBD-His (SARS-CoV-2, UniProt P0DTC2 319-541)
pxENBCP17-FLS-CT-His-SBP = pxENBCP17-FLS-CT-His-SBP (SARS-CoV-2, UniProt P0DTC2 15-1213)
[17] = target: pxENBCP19-FLS-CT-His-StrepTagII (SARS-CoV-2, UniProt P0DTC2 15-1213)
pxENBCP20-FLS-CT-His-TST = pxENBCP20-FLS-CT-His-TST (SARS-CoV-2, UniProt P0DTC2 15-1213)
pxENB17-RBD-His [18] = target: T7, pxENB17-RBD-His; remark: listed apart in the source
pxENB9-FLS-CT-His [19] = target: T5, pxENB9-FLS-CT-His; remark: listed apart in the source

B1: pxEBN4-ACE2-AAA-His (receptor)
chain: QSTIEEQAKTFLDKFNHEAEDLFYQSSLASWNYNTNITEENVQNMNNAGDKWSAFLKEQSTLAQMYPLQEIQNLTVKLQLQALQQNGSSVLSEDKSKRLNTILNTMSTIYSTGKVCNPDAPAECLLLEPGLNEIMANSLDYNERLWAWESWRSEVGKALRPLYEEYVVLKNEMARANHYEDYGDYWRGDYEVNGVDGYDYSRGQLIEDVEHTFEEIKPLYEHLHAYVRAKLMNAYPSYISPIGCLPAHLLGDMWGRFWTNLYSLTVPFGQKPNIDVTDAMVDQAWDAQRIFKEAEKFFVSVGLPNMTQGFWENSMLTDPGNVQKAVCHPTAWDLGKGDFRILMCTKVTMDDFLTAHHEMGHIQYDMAYAAQPFLLRNGANEGFHEAVGEIMSLSAATPKHLKSIGLLSPDFQEDNETEINFLLKQALTIVGTLPFTYMLEKWRWMVFKGEIPKDQWMKKWWEMKREIVGVVEPVPHDETYCDPASLFHVSNDYSFIRYYTRTLYQFQFQEALCQAAKHEGPLHKCDISNSTEAGQKLFNMLRLGKSEPWTLALENVVGAKNMNVRPLLNYFEPLFTWLKDQNKNSFVGWSTDWSPYADGGGSHHHHHHHH
- Kd (commercial RBD protein): 0.2 nM
- Kd (pxENB1-His-TEV-FLS-TN [1]): 3.9 nM
- Kd (pxENB2-His-TEV-FLS-CT [2]): 1.1 nM
- Kd (pxENB5-his-TEV-FLS [3]): 16.6 nM
- Kd (pxENB8-FLS-TN-His [4]): 6.51 nM
- Kd (pxENB9-FLS-CT-His [5]): < 0.001 nM
- Kd (pxENB12-FLS-His [6]): 3.19 nM
- Kd (pxAM-FLS-A-TB-His): 0.00709 nM
- Kd (pxENB1-His-TEV-FLS-TN [7]): 69.2 nM
- Kd (pxENB2-His-TEV-FLS-CT [8]): 0.45 nM
- Kd (pxENB5-his-TEV-FLS [9]): 19.5 nM
- Kd (pxENB8-FLS-TN-His [10]): 12.4 nM
- Kd (pxENB9-FLS-CT-His [11]): < 0.001 nM
- Kd (pxENB12-FLS-His [12]): 13.1 nM
- Kd (pxEBNCP14-tPa-FLS-CT-His): 0.00613 nM
- Kd [13]: < 0.001 nM
- Kd (pxEBNCP16-IL2-FLS-CT-His): 1.46 nM
- Kd [14]: 26.9 nM
- Kd [15]: 21.6 nM
- Kd (pxEBNCP1-His-TEV-S1): 22.8 nM
- Kd (pxEBNCP2-tPa-His-TEV-S1): 34.2 nM
- Kd (pxEBNCP3-S1-His): 39.6 nM
- Kd (pxEBNCP4-tPa-S1-His): 45 nM
- Kd (pxENB14-His-TEV-RBD): 0.156 nM
- Kd (pxENB17-RBD-His [16]): 0.242 nM
- Kd (pxENBCP17-FLS-CT-His-SBP): 51.5 nM
- Kd [17]: 90.8 nM
- Kd (pxENBCP20-FLS-CT-His-TST): 51.6 nM
- Kd (pxENB17-RBD-His [18]): 32.6 nM
- Kd (pxENB9-FLS-CT-His [19]): 36.6 nM

From US20240400618A1 (GRIFOLS DIAGNOSTIC SOLUTIONS, published 2024)
